Results taken from the supplement of paper PMC12764529.
± gives the half width of the 95% confidence interval.

How the values were obtained:
[1] = folding stability dG unfold from chymotrypsin proteolysis; higher = more stable
Outline: (§1)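 K50 was inferred by Bayesian fitting of sequencing counts obtained after protease digestion of designed mini-proteins. Unfolding free energy was derived by comparison with a sequence-predicted unfolded-state K50 and a shared folded-state K50, for each protease or both combined. The mini-proteins were under 80 residues, had no cysteine, were carried in a PA-tagged cDNA display construct, and were kept only if AlphaFold2 dimer inter-PAE exceeded 15.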

[2] = folding stability dG unfold from trypsin proteolysis; higher = more stable
Outline: as §1

[3] = folding stability dG unfold (combined trypsin and chymotrypsin); higher = more stable
Outline: as §1

Sequence	folding stability dG unfold [1] [kcal/mol]	folding stability dG unfold [2] [kcal/mol]	folding stability dG unfold [3] [kcal/mol]
SAGQTITFELKDPDITPEELQKKLQKRFGMKPMNIKPVEPDPDGWRFVIEFPENGGTRTFPWEEIRELISAG [r5_550_TrROS]	1.12 ± 0.18	0.861 ± 0.11	1.03 ± 0.13
SAGQWVKFTLPIYKMKYEKDKDGKPEIKEMKPIPKFDIEARVDEDGNVRIRFGGNEREFPPGESLEDLISAG [r14_909_TrROS]	0.482 ± 0.28	0.0407 ± 0.21	0.478 ± 0.24
SAGRKIEIHVPYDELRELFGPGQTAEDLADWIAQEGYQIEDIEVEPEPNPNNGKKYYRVTFEVKPPKKSAGG [r19_376_TrROS]	1.28 ± 0.12	0.345 ± 0.054	0.95 ± 0.11
SAGSIEIYIIYPPEDPDQPPTEEEIRSIARSLARQLGLPPKDFPIDVEWRRIDPEDGIYVYEITIEFPSAGG [r19_244_TrROS]	3.57 ± 0.062	2.74 ± 0.059	3.27 ± 0.1
SAGSIPEEIAKELGLPDLKVLKVETKPLPNGPLNIKIIELELPGGFKIKVTVVEEPEKIIIKTEPVPLSAGG [r19_392_JUSTAS]	0.64 ± 0.18	0.966 ± 0.034	0.968 ± 0.27
SAGSKTISISVPGNWNIEELKAFLSTLPDNVTVYIFYPNKVYVGTVDKKNINLSADSSYDGFKVLVVVPSAG [r5_373_TrMRF]	3.12 ± 0.028	2 ± 0.06	2.84 ± 0.083
SAGSKTITLEFNFEELKVKVTVTYDPEGEPTVTVTTTIYAKGGEKLETKTTTVTASPDDPVVKAFLESSSAG [r5_964_JUSTAS]	3.16 ± 0.084	2.19 ± 0.041	2.77 ± 0.074
SAGSLEKVTESSTSSDKVEVTTTTLTPLSNPSVPVQYVKTTTTTTLIDPATGKTLSTTTTTTTTPLPAASAG [r5_300_JUSTAS]	0.0998 ± 0.19	-0.0274 ± 0.047	0.053 ± 0.19
SAGSLKPGDLLYVRIYVYNPDGELLGEIDELVETEEEAERRLRELAREIEERLGRNVRVLAEIYRYPRLSAG [r5_232_TrMRF]	4.559 ± 0.024	3.36 ± 0.088	4.19 ± 0.1
SAGSLKPSDLVLLRSRPVRVGGKPVVLVDLVVFHPDGSASRAVLTLPSGVGPPVVGVVPVPALVRLIASSAG [r5_831_TrMRF]	2.14 ± 0.084	1.53 ± 0.047	1.95 ± 0.12
SAGSMHLVEFTGTEEVVDEFLASLPPEVVVERERYPDRWLVRLPPDVPARTITVPTPDGRPVTFTLRLESAG [r5_123_JUSTAS]	-0.346 ± 0.31	-0.851 ± 0.41	-0.487 ± 0.21
SAGSMKTVVRVEKEVDPSTGKITITEEIEDKVYTTTMDLNPETGDATSTVTYPDSTIGTTTVPISSISSSAG [r5_415_JUSTAS]	0.706 ± 0.052	-0.155 ± 0.024	0.432 ± 0.067
SAGSMLFDPNGVLREVSVTPDPSTGTTVTTTLVQWPVDDGNGNSVLERITTTTSPSGTVTTSTEVRPAPSAG [r5_303_JUSTAS]	0.0881 ± 0.034	0.182 ± 0.027	0.138 ± 0.085
SAGSMPPSTTTSEEVTVGGKKVKRTTTVYRAPNGTPSVTSTYTLGETPGVEDPLSGKALTPEERAAAAASAG [r5_138_JUSTAS]	0.564 ± 0.28	0.417 ± 0.21	0.668 ± 0.16
SAGSMSSVKKVKITTTSYDPTNGAKKETSYDVTVTTTTYPATGEITRTIYFTSTGKWKVEHLPPGAPLASAG [r14_587_JUSTAS]	2.15 ± 0.12	1.48 ± 0.066	1.97 ± 0.14
SAGSNKKITAEELAKLLEEKFKEKFPDAEIKVHAHAEPRPDDKLIIHVHFEIYRKKPKIGEFDVVIEFESAG [r5_696_TrMRF]	2.76 ± 0.043	1.55 ± 0.085	2.38 ± 0.13
SAGSPETVTLPLTVTLPPGVPLSQIEAVLKKNGFTELEITASPTPDGTLRYAIDATMPVSVVEKLIKALSAG [r5_376_JUSTAS]	2.24 ± 0.042	1.8 ± 0.035	2.08 ± 0.059
SAGSPLYEVKSEEVLPGPGGEPMRVTVVELPGGEILTFVESPDGLLEIRYIPAETGKFEKTEKVPRDLLSAG [r5_750_JUSTAS]	0.802 ± 0.087	0.445 ± 0.06	0.618 ± 0.15
SAGSPPDDVREEETEEVVPSPDGSLTVTRTPVVRRPGEEEEVRTETTVYFPPSDETLTSESLTRFPGASAGG [r19_387_JUSTAS]	0.895 ± 0.051	0.356 ± 0.049	0.695 ± 0.095
SAGSSPEEIAERLREEAERTEKLPDGSEVRVSVSVDVEVLPNGTVRLTIPRSYPETGVVTTETVTIPVASAG [r5_397_JUSTAS]	-0.579 ± 0.33	0.0542 ± 0.11	-0.194 ± 0.16
SAGSSSSLPNVLVVTLYLPDAPLPIVLPVDTPEDVELAKERVKEIEKELEELGLPVNVEFKYYPPGFPVSAG [r5_823_TrMRF]	-1.16 ± 0.84	0.497 ± 0.065	0.194 ± 0.18

Sequence	folding stability dG unfold [1] [kcal/mol]	folding stability dG unfold [2] [kcal/mol]	folding stability dG unfold [3] [kcal/mol]
SAGSSSVTLFPEYTITTTTLPDGSRSVTINFTNPEEAKKLFEENPEIKELIEKFKKEGWDVKINAKNPSSAG [r14_873_JUSTAS]	3.95 ± 0.17	2.98 ± 0.21	3.67 ± 0.22
SAGSSTTETFTHPDGSVVTVTEEELPDGSYRVTSVSYEATPDGTVSALLRKPDGTIITVDSLEELFALESAG [r5_618_JUSTAS]	1.51 ± 0.076	0.965 ± 0.025	1.34 ± 0.083
SAGSVEIKESSLPDSTIITITIPYTSPEEAPERIERLLKELGLSENVQVIEVKYEPSPPVVTVKIKIESAGG [r19_186_JUSTAS]	3.21 ± 0.09	2.41 ± 0.077	2.99 ± 0.12
SAGSVETFEDPEVGRVVIVPLPGGEVLTIELPPDSITMTLTSPKGGESVTITKKMKPGEEEELIKELASSAG [r5_820_JUSTAS]	-0.603 ± 0.45	-0.521 ± 0.47	-0.358 ± 0.3
SAGSVEVSVSGNEIHITAPEGISLEELIELIKKLFPGADIGEVSVEKLPDGRYVATFKAGFKPPSPDELSAG [r5_110_TrMRF]	4.29 ± 0.14	4.41 ± 0.25	4.34 ± 0.12
SAGSVTITLNIPPGQDVTLNIGGKEATLTVDPETKVYTMTDPQTGDVWTVTVDPNSPVASVTYTAAPAGSAG [r5_302_JUSTAS]	1.57 ± 0.15	0.996 ± 0.039	1.37 ± 0.11
SAGSVTVTETKTEGDKETITMTRPETGETVEEKITKKNGKVKVTKTYYSPSGVKLGSSEKVLSESELLLSAG [r5_308_JUSTAS]	-0.195 ± 0.33	-0.0129 ± 0.18	-0.0136 ± 0.26
SAGTAKELAELLPGATVEVDEETGTVTVTVELDGYTVRIEIRVDPETGEIVEIRITVTNPDGEEREFELSAG [r5_367_TrROS_Hall]	2.92 ± 0.096	3.01 ± 0.077	2.94 ± 0.062
SAGTELELEAEAEVLFPELGTRARVRVRARVRPTEDEVEVELEVEAEFEPLPLVPPIVSPEENPELAEGSAG [r14_435_TrMRF]	2.7 ± 0.14	3.19 ± 0.12	3.08 ± 0.17
SAGTIHFMVPRDEMSDEEAEDIVNTIAKHFPGFKIDRIYWHKQPDPDGDPRRMYHVEIKIKIPLPPGMKSAG [r5_835_TrROS]	2.41 ± 0.06	1.29 ± 0.022	2.06 ± 0.059
SAGTIRLNGLELEVDIEWWPEHGYITINVTITWPNGRTMMMQIIIKVKPVKPPPPPPPKYDPDNGKPKASAG [r5_816_TrROS]	4.38 ± 0.25	2.97 ± 0.1	3.68 ± 0.34
SAGTIVFSRDELKELGIPEDMTVEEIKQKILDRLKEEGYEVKITKIEVVEVDEEEGRVLVRITIEVKKPSAG [r5_23_TrROS_Hall]	4.28 ± 0.13	3.69 ± 0.14	4.17 ± 0.13
SAGTLVLVIEVPLEDVTPEQAEEIAEEAARFLREAGLPEGIEVEDVRVERLPDGRLLVLLPMRILEDESAGG [r19_87_TrMRF]	2.59 ± 0.059	1.97 ± 0.056	2.41 ± 0.14
SAGTVRLEVTVVIKLTKEQIENLPKDVKLEDGAEIEEKDDYLVIKRTIELPPPVVTDKDGKKLPLEELSAGG [r19_148_TrROS_Hall]	1.4 ± 0.087	0.23 ± 0.17	0.938 ± 0.32
SAGTVTIGIWIPADDIEQIKELIRSIAEEHGWEVKVDKIEPNPDGQYFVTVTVENPENGKEIKITIWIPSAG [r5_41_TrROS]	3.39 ± 0.044	2.98 ± 0.056	3.25 ± 0.11
SAGVDGVKWNPESNEVSVEYEVNNQRVEQYIEPKPIPPVIVIPIDDIAERNPGLKDDLDENPGDWLVFPSAG [r5_958_TrROS]	-0.332 ± 0.089	0.79 ± 0.077	0.415 ± 0.09
SAGWFISIKYKDPPTGRKRKISIPIPPGDPWLKELGFPSLDGLAKWLAPEMREEGHDVKDVKVEIMPPKSAG [r5_722_TrROS]	4.16 ± 0.059	3.38 ± 0.19	3.75 ± 0.16
SAGWIIRITLPDNGRTIEIDFENGYIIKITSPDEGKPRVIPIPPDDIREWIKELFPGPVRIVEIYPLPKSAG [r5_519_TrROS]	3.09 ± 0.05	2.21 ± 0.042	2.69 ± 0.083
SAGWIMINSPEDAERIVEELRKLLPPGYKIDVEPMPNGSVMIEFENPEEGREIKIHYDRRNGMYWIEPVSAG [r5_358_TrROS]	2.54 ± 0.079	2.58 ± 0.13	2.59 ± 0.11
SAGWISPKQLRHALRNGKPIKIYMPNPQNKEHAKNWLRQETGLPKEEQKELLKDVKIEPMPPNDPNFKKSAG [r5_368_TrROS]	0.497 ± 0.47	0.128 ± 0.33	-0.0521 ± 0.45
SAGWYIKVEVYYGGKKHTFMIPRKQAKELRKKYPPGDEIPIPFNGRDVEIRVQVIPPPPPSPEDAADNKSAG [r5_669_TrROS]	2.75 ± 0.12	1.83 ± 0.047	2.44 ± 0.17
